Test results from patent US7615610B2, “Modified trafficking patterns for arrestin and G-protein-coupled receptors via arrestin-ubiquitin chimera” (Duke University, priority 2003, dated 2009).

Columns and labels:
[1] = target: T1, β2AR (Homo sapiens, UniProt P07550); assay: Receptor internalization (loss of cell surface receptors, flow cytometry), β2AR
[2] = target: T1, β2AR; assay: Coimmunoprecipitation of YFP-β-arrestins with Flag-β2AR in COS-7 cells; format: binding; set-up: expressed in transfected cells; settings: Flag-β2AR IP, 15 minutes of agonist treatment
From the text: A) Stability of the ubiquitin chimera in COS-7 cells. […] The bands on the autorad were quantitated using Fluorimager and graphically represented in the figure. The zero time point represents 100% protein. The graph is an average of three independent experiments. B) Interaction of β-arrestin2-Ub chimera with β2AR. […] After stimulation or not the receptor was immunoprecipitated with anti-Flag beads in the absence (left panels) or presence (right panels) of the inhibitor NEM; the IP was blotted for YFP-β-arrestins with a monoclonal antibody to GFP (top panel). […] The blots are representative of similar blots from three independent experiments.
Immunoprecipitation and Irnmunoblofting—To detect ubiquitinated β-arrestin2, β-arrestin2 with a C-terminal Flag epitope was transiently transfected into COS-7 cells. Cells were serum starved for at least 2 hrs and then stimulated or not for the stipulated times with the appropriate agonists. Cells were solubilized in a lysis buffer (LB) containing 50 mM Hepes (pH7.5), 0.5% NP40, 250 mM NaCl, 2 mM EDTA, 10% (vlv) glycerol, 1 mM sodium orthovanadate, 1 mM sodium fluoride, 1 mM phenylmethylsulfonyl fluoride, leupeptin (5 μg/ml) aprotinin (5 μg/ml), pepstatin A (1 μg/ml) benzaminidine (100 μM) 2 μM MG132 and 10 mM NEM. Soluble extracts were mixed with FLAG M2 affinity beads and rotated at 4° C. overnight. […]

[3] = target: T2, V2Rβ2CT (Homo sapiens, UniProt P07550+P30518); assay: Confocal microscopy of arrestin trafficking with V2Rβ2CT in HEK-293 cells; format: cell-based; settings: live HEK-293 cells expressing V2Rβ2CT, 15 min and longer
T2 construct: the first 342 amino acids of the V2R (Met1-Cys342); the last 72 amino acids of the β2AR (Leu342 to Leu 413); expressed in transfected cells; host or cells: HEK-293
Procedure: Twenty-four hours post-transfection cells were plated on collagen-coated 35 mm glass bottom plates. Cells were starved for at least 2 hrs in serum free medium prior to stimulation. After stimulation cells were fixed with 4% paraformaldehyde. For visualizing HA-tagged receptors, fixed cells were permeabilized with 0.01% Triton in PBS containing 2% BSA for 20 min and incubated at room temperature with 12CA5 antibody at 1:500 dilution. The secondary antibody, antimouse IgG conjugated to TexasRed, followed this. Antibody incubations were done for one hour followed by repeated washes using PBS. Cells expressing low and equivalent levels of the fluorescent proteins were carefully selected to examine YFP-β-arrestins. […] Live images were acquired using a heated (37° C.) microscope stage and collected sequentially using single line excitation (488 nm).

[4] = target: T1, β2AR; assay: Confocal microscopy of arrestin trafficking with β2AR in HEK-293 cells; format: cell-based; set-up: expressed in transfected cells; host or cells: HEK-293; settings: for colocalization with internalized β2AR in endocytic vesicles: fixed HEK-293 cells, HA-β2AR, 15 min isoproterenol; for distribution of YFP fluorescence after isoproterenol: live HEK293 cells over expressing β2AR, 10 μM isoproterenol, 15-30 min
Procedure: Cells were starved for one hour in serum free media. […] Shown are representative confocal images of YFP-fluorescence followed in the same HEK-293 cells treated for 2, 15 and 30 min at 37° C.
HEK-293 cells were transiently transfected with HA-β2AR and YFP-βarrestin2 (A) or YFP-β-arrestin2-Ub (B). After isoproterenol treatment or not the cells were fixed, permeabilized and stained for receptor with the primary antibody 12CA5 and secondary antibody anti mouse IgG conjugated to Texas Red. Shown are confocal images where receptor is visualized in the Red channels and β-arrestin in the green channels. Colocalization of two proteins is seen as yellow in the overlay. The results are representative of three independent experiments.
HEK-293 cells on 10 cm dishes were transiently transfected with HA-β2AR, HA-V2R, HAβ2ARV2CT, or HAV2Rβ2CT, along with β-arr2-GFP, or YFP-βarrestin2, or YFP-β-arrestin2-Ub. Twenty-four hours post-transfection cells were plated on collagen-coated 35 mm glass bottom plates. Cells were starved for at least 2 hrs in serum free medium prior to stimulation. After stimulation cells were fixed with 4% paraformaldehyde. For visualizing HA-tagged receptors, fixed cells were permeabilized with 0.01% Triton in PBS containing 2% BSA for 20 min and incubated at room temperature with 12CA5 antibody at 1:500 dilution. The secondary antibody, antimouse IgG conjugated to TexasRed, followed this. Antibody incubations were done for one hour followed by repeated washes using PBS. Cells expressing low and equivalent levels of the fluorescent proteins were carefully selected to examine YFP-β-arrestins. Confocal images were obtained on Zeiss LSM510 laser scanning microscope using dual excitation (488, 568 nm) and emission (515-540 nm GFP, YFP; 590-610 nm, Texas red) filter sets. Live images were acquired using a heated (37° C.) microscope stage and collected sequentially using single line excitation (488 nm).

[5] = target: T1, β2AR

| reduction of internalization ([1]; pretreatment of cells with 200 μM MDC, data not shown) [%] | β2AR internalization ([1]; HEK293 cells, arrestin overexpressed with Flag-β2AR, 10 μM isoproterenol 30 min, mean±SEM) [%] | Compound | receptor-bound (coimmunoprecipitated) arrestin bands [2] | distribution of YFP fluorescence after AVP [3] | colocalization with internalized β2AR in endocytic vesicles [4] | distribution of YFP fluorescence after isoproterenol [4] | increase in amount of β2AR degradation [5] |
| --- | --- | --- | --- | --- | --- | --- | --- |
| 45 |  | CN(C)c1cccc2c(S(=O)(=O)NCCCCCN)cccc12 [MDC, monodansylcadaverine] |  |  |  |  |  |
|  |  | YFP-β-arrestin2-Ub: YFP-labelled β-arrestin2-ubiquitin chimera from pEYFPC1 (SEQ ID NOS:1-2) | detectable with the chimeric protein | moved into endocytic vesicles as early as 15 min | colocalize with the internalized β2AR | redistribute from the plasma membrane to endocytic vesicles |  |
|  |  | YFP-β-arrestin2: wild type β-arrestin2 tagged with YFP, comparator | not detectable |  | did not however contain any YFP-β-arrestin2 | unaltered at 30 min of isoproterenol treatment |  |
|  | 33±1.6 | β-arrestin2: wild type β-arrestin2 overexpressed as comparator |  |  |  |  | 6-7% |
